Experimental data reported in patent US20220040297A1 (Chugai, published 2022).

B1: GLS3000 G89T (antibody, name in Kabat numbering, V domains shown)
VH: QVQLVESGGGVVQPGRSLRLSCAASGFTFSNAWMHWVRQAPGKGLEWVAQIKAKSNNYATYYAESVKGRFTISRDDSKNSLYLQMNSLKTEDTAVYYCRYVHYGAYYGVDAWGQGTTVTVSS
VL: DIVMTQSPLSLPVTPGEPASISCRSSQSLVHSNRNTYLHWYQQKPGQAPRLLIYKVSNRFSGVPDRFSGSGSGTDFTLKISRVEAEDVGVYYCTQGTQVPYTFGQGTKLEIK
notes: one-arm format as m2
B2: GLS3000 G89V (antibody, name in Kabat numbering, V domains shown)
VH: QVQLVESGGGVVQPGRSLRLSCAASGFTFSNAWMHWVRQAPGKGLEWVAQIKAKSNNYATYYAESVKGRFTISRDDSKNSLYLQMNSLKTEDTAVYYCRYVHYGAYYGVDAWGQGTTVTVSS
VL: DIVMTQSPLSLPVTPGEPASISCRSSQSLVHSNRNTYLHWYQQKPGQAPRLLIYKVSNRFSGVPDRFSGSGSGTDFTLKISRVEAEDVGVYYCVQGTQVPYTFGQGTKLEIK
notes: one-arm format as m2
B3: GLS3000 G89W (antibody, name in Kabat numbering, V domains shown)
VH: QVQLVESGGGVVQPGRSLRLSCAASGFTFSNAWMHWVRQAPGKGLEWVAQIKAKSNNYATYYAESVKGRFTISRDDSKNSLYLQMNSLKTEDTAVYYCRYVHYGAYYGVDAWGQGTTVTVSS
VL: DIVMTQSPLSLPVTPGEPASISCRSSQSLVHSNRNTYLHWYQQKPGQAPRLLIYKVSNRFSGVPDRFSGSGSGTDFTLKISRVEAEDVGVYYCWQGTQVPYTFGQGTKLEIK
notes: one-arm format as m2
B4: GLS3000 G89Y (antibody, name in Kabat numbering, V domains shown)
VH: QVQLVESGGGVVQPGRSLRLSCAASGFTFSNAWMHWVRQAPGKGLEWVAQIKAKSNNYATYYAESVKGRFTISRDDSKNSLYLQMNSLKTEDTAVYYCRYVHYGAYYGVDAWGQGTTVTVSS
VL: DIVMTQSPLSLPVTPGEPASISCRSSQSLVHSNRNTYLHWYQQKPGQAPRLLIYKVSNRFSGVPDRFSGSGSGTDFTLKISRVEAEDVGVYYCYQGTQVPYTFGQGTKLEIK
notes: one-arm format as m2
B5: GLS3000 G91A (antibody, name in Kabat numbering, V domains shown)
VH: QVQLVESGGGVVQPGRSLRLSCAASGFTFSNAWMHWVRQAPGKGLEWVAQIKAKSNNYATYYAESVKGRFTISRDDSKNSLYLQMNSLKTEDTAVYYCRYVHYGAYYGVDAWGQGTTVTVSS
VL: DIVMTQSPLSLPVTPGEPASISCRSSQSLVHSNRNTYLHWYQQKPGQAPRLLIYKVSNRFSGVPDRFSGSGSGTDFTLKISRVEAEDVGVYYCGQATQVPYTFGQGTKLEIK
notes: one-arm format as m2
B6: GLS3000 G91D (antibody, name in Kabat numbering, V domains shown)
VH: QVQLVESGGGVVQPGRSLRLSCAASGFTFSNAWMHWVRQAPGKGLEWVAQIKAKSNNYATYYAESVKGRFTISRDDSKNSLYLQMNSLKTEDTAVYYCRYVHYGAYYGVDAWGQGTTVTVSS
VL: DIVMTQSPLSLPVTPGEPASISCRSSQSLVHSNRNTYLHWYQQKPGQAPRLLIYKVSNRFSGVPDRFSGSGSGTDFTLKISRVEAEDVGVYYCGQDTQVPYTFGQGTKLEIK
notes: one-arm format as m2
B7: GLS3000 G91E (antibody, name in Kabat numbering, V domains shown)
VH: QVQLVESGGGVVQPGRSLRLSCAASGFTFSNAWMHWVRQAPGKGLEWVAQIKAKSNNYATYYAESVKGRFTISRDDSKNSLYLQMNSLKTEDTAVYYCRYVHYGAYYGVDAWGQGTTVTVSS
VL: DIVMTQSPLSLPVTPGEPASISCRSSQSLVHSNRNTYLHWYQQKPGQAPRLLIYKVSNRFSGVPDRFSGSGSGTDFTLKISRVEAEDVGVYYCGQETQVPYTFGQGTKLEIK
notes: one-arm format as m2
B8: GLS3000 G91P (antibody, name in Kabat numbering, V domains shown)
VH: QVQLVESGGGVVQPGRSLRLSCAASGFTFSNAWMHWVRQAPGKGLEWVAQIKAKSNNYATYYAESVKGRFTISRDDSKNSLYLQMNSLKTEDTAVYYCRYVHYGAYYGVDAWGQGTTVTVSS
VL: DIVMTQSPLSLPVTPGEPASISCRSSQSLVHSNRNTYLHWYQQKPGQAPRLLIYKVSNRFSGVPDRFSGSGSGTDFTLKISRVEAEDVGVYYCGQPTQVPYTFGQGTKLEIK
notes: one-arm format as m2
B9: GLS3000 G91S (antibody, name in Kabat numbering, V domains shown)
VH: QVQLVESGGGVVQPGRSLRLSCAASGFTFSNAWMHWVRQAPGKGLEWVAQIKAKSNNYATYYAESVKGRFTISRDDSKNSLYLQMNSLKTEDTAVYYCRYVHYGAYYGVDAWGQGTTVTVSS
VL: DIVMTQSPLSLPVTPGEPASISCRSSQSLVHSNRNTYLHWYQQKPGQAPRLLIYKVSNRFSGVPDRFSGSGSGTDFTLKISRVEAEDVGVYYCGQSTQVPYTFGQGTKLEIK
notes: one-arm format as m2
B10: GLS3000 G91T (antibody, name in Kabat numbering, V domains shown)
VH: QVQLVESGGGVVQPGRSLRLSCAASGFTFSNAWMHWVRQAPGKGLEWVAQIKAKSNNYATYYAESVKGRFTISRDDSKNSLYLQMNSLKTEDTAVYYCRYVHYGAYYGVDAWGQGTTVTVSS
VL: DIVMTQSPLSLPVTPGEPASISCRSSQSLVHSNRNTYLHWYQQKPGQAPRLLIYKVSNRFSGVPDRFSGSGSGTDFTLKISRVEAEDVGVYYCGQTTQVPYTFGQGTKLEIK
notes: one-arm format as m2
B11: GLS3000 G91Y (antibody, name in Kabat numbering, V domains shown)
VH: QVQLVESGGGVVQPGRSLRLSCAASGFTFSNAWMHWVRQAPGKGLEWVAQIKAKSNNYATYYAESVKGRFTISRDDSKNSLYLQMNSLKTEDTAVYYCRYVHYGAYYGVDAWGQGTTVTVSS
VL: DIVMTQSPLSLPVTPGEPASISCRSSQSLVHSNRNTYLHWYQQKPGQAPRLLIYKVSNRFSGVPDRFSGSGSGTDFTLKISRVEAEDVGVYYCGQYTQVPYTFGQGTKLEIK
notes: one-arm format as m2
B12: GLS3000 H27dA (antibody, name in Kabat numbering, V domains shown)
VH: QVQLVESGGGVVQPGRSLRLSCAASGFTFSNAWMHWVRQAPGKGLEWVAQIKAKSNNYATYYAESVKGRFTISRDDSKNSLYLQMNSLKTEDTAVYYCRYVHYGAYYGVDAWGQGTTVTVSS
VL: DIVMTQSPLSLPVTPGEPASISCRSSQSLVASNRNTYLHWYQQKPGQAPRLLIYKVSNRFSGVPDRFSGSGSGTDFTLKISRVEAEDVGVYYCGQGTQVPYTFGQGTKLEIK
notes: one-arm format as m2
B13: GLS3000 H27dD (antibody, name in Kabat numbering, V domains shown)
VH: QVQLVESGGGVVQPGRSLRLSCAASGFTFSNAWMHWVRQAPGKGLEWVAQIKAKSNNYATYYAESVKGRFTISRDDSKNSLYLQMNSLKTEDTAVYYCRYVHYGAYYGVDAWGQGTTVTVSS
VL: DIVMTQSPLSLPVTPGEPASISCRSSQSLVDSNRNTYLHWYQQKPGQAPRLLIYKVSNRFSGVPDRFSGSGSGTDFTLKISRVEAEDVGVYYCGQGTQVPYTFGQGTKLEIK
notes: one-arm format as m2
B14: GLS3000 H27dE (antibody, name in Kabat numbering, V domains shown)
VH: QVQLVESGGGVVQPGRSLRLSCAASGFTFSNAWMHWVRQAPGKGLEWVAQIKAKSNNYATYYAESVKGRFTISRDDSKNSLYLQMNSLKTEDTAVYYCRYVHYGAYYGVDAWGQGTTVTVSS
VL: DIVMTQSPLSLPVTPGEPASISCRSSQSLVESNRNTYLHWYQQKPGQAPRLLIYKVSNRFSGVPDRFSGSGSGTDFTLKISRVEAEDVGVYYCGQGTQVPYTFGQGTKLEIK
notes: one-arm format as m2
B15: GLS3000 H27dF (antibody, name in Kabat numbering, V domains shown)
VH: QVQLVESGGGVVQPGRSLRLSCAASGFTFSNAWMHWVRQAPGKGLEWVAQIKAKSNNYATYYAESVKGRFTISRDDSKNSLYLQMNSLKTEDTAVYYCRYVHYGAYYGVDAWGQGTTVTVSS
VL: DIVMTQSPLSLPVTPGEPASISCRSSQSLVFSNRNTYLHWYQQKPGQAPRLLIYKVSNRFSGVPDRFSGSGSGTDFTLKISRVEAEDVGVYYCGQGTQVPYTFGQGTKLEIK
notes: one-arm format as m2
B16: GLS3000 H27dG (antibody, name in Kabat numbering, V domains shown)
VH: QVQLVESGGGVVQPGRSLRLSCAASGFTFSNAWMHWVRQAPGKGLEWVAQIKAKSNNYATYYAESVKGRFTISRDDSKNSLYLQMNSLKTEDTAVYYCRYVHYGAYYGVDAWGQGTTVTVSS
VL: DIVMTQSPLSLPVTPGEPASISCRSSQSLVGSNRNTYLHWYQQKPGQAPRLLIYKVSNRFSGVPDRFSGSGSGTDFTLKISRVEAEDVGVYYCGQGTQVPYTFGQGTKLEIK
notes: one-arm format as m2
B17: GLS3000 H27dI (antibody, name in Kabat numbering, V domains shown)
VH: QVQLVESGGGVVQPGRSLRLSCAASGFTFSNAWMHWVRQAPGKGLEWVAQIKAKSNNYATYYAESVKGRFTISRDDSKNSLYLQMNSLKTEDTAVYYCRYVHYGAYYGVDAWGQGTTVTVSS
VL: DIVMTQSPLSLPVTPGEPASISCRSSQSLVISNRNTYLHWYQQKPGQAPRLLIYKVSNRFSGVPDRFSGSGSGTDFTLKISRVEAEDVGVYYCGQGTQVPYTFGQGTKLEIK
notes: one-arm format as m2
B18: GLS3000 H27dK (antibody, name in Kabat numbering, V domains shown)
VH: QVQLVESGGGVVQPGRSLRLSCAASGFTFSNAWMHWVRQAPGKGLEWVAQIKAKSNNYATYYAESVKGRFTISRDDSKNSLYLQMNSLKTEDTAVYYCRYVHYGAYYGVDAWGQGTTVTVSS
VL: DIVMTQSPLSLPVTPGEPASISCRSSQSLVKSNRNTYLHWYQQKPGQAPRLLIYKVSNRFSGVPDRFSGSGSGTDFTLKISRVEAEDVGVYYCGQGTQVPYTFGQGTKLEIK
notes: one-arm format as m2
B19: GLS3000 H27dL (antibody, name in Kabat numbering, V domains shown)
VH: QVQLVESGGGVVQPGRSLRLSCAASGFTFSNAWMHWVRQAPGKGLEWVAQIKAKSNNYATYYAESVKGRFTISRDDSKNSLYLQMNSLKTEDTAVYYCRYVHYGAYYGVDAWGQGTTVTVSS
VL: DIVMTQSPLSLPVTPGEPASISCRSSQSLVLSNRNTYLHWYQQKPGQAPRLLIYKVSNRFSGVPDRFSGSGSGTDFTLKISRVEAEDVGVYYCGQGTQVPYTFGQGTKLEIK
notes: one-arm format as m2
B20: GLS3000 H27dN (antibody, name in Kabat numbering, V domains shown)
VH: QVQLVESGGGVVQPGRSLRLSCAASGFTFSNAWMHWVRQAPGKGLEWVAQIKAKSNNYATYYAESVKGRFTISRDDSKNSLYLQMNSLKTEDTAVYYCRYVHYGAYYGVDAWGQGTTVTVSS
VL: DIVMTQSPLSLPVTPGEPASISCRSSQSLVNSNRNTYLHWYQQKPGQAPRLLIYKVSNRFSGVPDRFSGSGSGTDFTLKISRVEAEDVGVYYCGQGTQVPYTFGQGTKLEIK
notes: one-arm format as m2
B21: GLS3000 H27dP (antibody, name in Kabat numbering, V domains shown)
VH: QVQLVESGGGVVQPGRSLRLSCAASGFTFSNAWMHWVRQAPGKGLEWVAQIKAKSNNYATYYAESVKGRFTISRDDSKNSLYLQMNSLKTEDTAVYYCRYVHYGAYYGVDAWGQGTTVTVSS
VL: DIVMTQSPLSLPVTPGEPASISCRSSQSLVPSNRNTYLHWYQQKPGQAPRLLIYKVSNRFSGVPDRFSGSGSGTDFTLKISRVEAEDVGVYYCGQGTQVPYTFGQGTKLEIK
notes: one-arm format as m2

Molecular target: CD3ε homodimer protein (human, UniProt P07766 23-126, limits assumed)
Test: SPR, immobilized CD3ε homodimer;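 also: biacore T200 surface plasmon resonance at 25 °C, antibody variants flowed as analytes over amine-coupled CD3ε homodimer on a CM4 chip, variant binding amount divided by that of GLS3000 antibody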

Sequence of CD3ε homodimer protein (P07766 23-126 limits assumed): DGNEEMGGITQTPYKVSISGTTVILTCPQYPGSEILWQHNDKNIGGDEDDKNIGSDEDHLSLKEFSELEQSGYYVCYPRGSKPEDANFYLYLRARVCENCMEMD

Binder	ratio of amounts bound (vs GLS3000)
B1	1.03
B2	1.63
B3	0.5
B4	1.19
B5	0.27
B6	0.16
B7	0.16
B8	0.27
B9	0.26
B10	0.26
B11	0.17
B12	0.48
B13	0.22
B14	0.23
B15	0.63
B16	0.3
B17	0.26
B18	0.29
B19	0.3
B20	0.3
B21	0.24
